Measured values from publication PMC6833008 (Molecules, 2019).
Several values for one entry are separate records, joined by “and”; a condition that tells them apart may be missing. Identical values can stand only once. Like-named read-outs stand apart in the source and are kept apart here. Ends that are not written are not given here.

Columns and labels:
[1] = molecular target: T1, Recombinant human PD-1 protein (Homo sapiens, UniProt Q15116); assay: SPR binding of peptides or PD-L1 to immobilized PD-1 (Biacore X100)
T1 construct: purchased Abcam (Cambridge, UK)
Procedure: Peptides of lyophilized powder were dissolved in sterile milli-Q H2O to a stock concentration of 1 mM for use in surface plasmon resonance (SPR) analysis. […] All synthetic peptides and proteins were equally packaged to avoid repeated freeze–thaw cycles.
The HBS-EP buffer (10×) was diluted 10-fold with sterile deionized water, filtered through a 0.22-μm membrane filter, and degassed immediately before the experiment as running buffer with a flow rate of 30 μL/min for the instrument system. The purified active PD-1 was diluted by 10 mM sodium acetate solution at pH 4.5, resulting in a protein concentration of 50 μg/mL. Coupling conditions were determined by protein isoelectric points and previous reports. The diluted protein was immobilized on the surface of a CM5 sensor chip via the primary amine group, employing a standard Amine Coupling Kit, and the target immobilization level was 5000 response units (RUs). The flow cell 1 […] any modification was used as a reference to correct the system error. The RU values were collected, and all the binding affinity data was calculated by kinetic models (1:1 interaction) within Biacore X100 Evaluation Software.
Each concentration was injected into the channel for 120 and 150 s for dissociation. Then, 10 mM glycine 3.0 or glycine 2.5 was utilized to regenerate the sensor chip surface. The equilibrium dissociation constant (KD) was calculated to evaluate the ability of peptides to interact with PD-1.

[2] = molecular target: T2, Recombinant human PD-1 protein (programmed cell death protein 1) (human, UniProt Q15116 25-170); assay: SPR; Biacore X100, 25 °C; PD-1 amine-coupled to a CM5 chip (target 5000 RU); peptide as analyte in HBS-EP buffer pH 7.4 (2-64 μM WANG-003, 1-16 μM WANG-004, 1.5625-100 μM WANG-005), 30 μL/min, 120 s injection, 150 s dissociation; regeneration 10 mM glycine 3.0 or 2.5; 1:1 kinetic model; three single runs; conditions: both partners purified
T2 construct: programmed cell death protein 1 (PD-1), human, recombinant, bought from Abcam; the results speak of the immobilised ectodomain; also called hPD-1; CD279; source: bought: Abcam
T2 sequence (Q15116 25-170): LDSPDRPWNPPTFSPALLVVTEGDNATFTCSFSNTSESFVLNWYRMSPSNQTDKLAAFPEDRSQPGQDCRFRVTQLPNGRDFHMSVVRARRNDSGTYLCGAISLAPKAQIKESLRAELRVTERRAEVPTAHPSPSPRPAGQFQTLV

[3] = molecular target: T3, Recombinant human PD-1 protein (programmed cell death protein 1) (human, UniProt Q15116 25-170); assay: SPR; Biacore X100, 25 °C; PD-1 immobilised on a CM5 chip by amine coupling (target 5000 RU); peptides as analytes in HBS-EP (2–64 μM WANG-003, 1–16 μM WANG-004, 1.5625–100 μM WANG-005, 62.5–1000 μM WANG006, 3.125–100 μM WANG007), 120 s injection and 150 s dissociation; 30 μL/min; 1:1 kinetic model; conditions: both partners purified
T3 construct: Programmed cell death protein 1 (PD-1), human, recombinant, bought from Abcam; the results call the immobilised protein an ectodomain; No catalogue number, limits or tags are printed; The UniProt ID Q15116 is printed for the docking model, not for the bought protein; also called CD279; purified active PD-1; source: bought: Abcam
T3 sequence (Q15116 25-170): as above

T1 sequence (Q15116 25-170 limits assumed): as the sequence (Q15116 25-170) above

YVAM-NH2 [WANG-006]
binding affinity to PD-1 (in words) [1]: did not show binding affinities

FRWWR-NH2 (C-terminus assumed) [WANG-004, FRWWR-NH2]
binding affinity to PD-1 (in words) [1]: moderate affinity
binding affinity to PD-1 (in words) ([1]; listed as FRWWR-NH2): moderate binding affinity

YVAE-NH2 [WANG-007]
binding affinity to PD-1 (in words) [1]: did not show binding affinities

RRWQWR-NH2 [WANG-005, RRWQWR-NH2]
binding affinity to PD-1 (in words) [1]: moderate affinity

KRWWR-NH2 (C-terminus assumed) [WANG-003, KRWWR-NH2]
binding affinity to PD-1 (in words) [1]: moderate affinity

B1: WANG-003 (KRWWR-NH2) (peptide)
peptide: KRWWR-NH2
notes: in-house synthetic peptide; source: synthetic peptide
Kd [2]: 2100 nM and 4610 nM and 3350 nM
koff [2]: 0.00258 s⁻¹ and 0.00446 s⁻¹ and 0.00365 s⁻¹
kon [2]: 1230 M⁻¹ s⁻¹ and 967 M⁻¹ s⁻¹ and 1090 M⁻¹ s⁻¹

B2: WANG-004 (FRWWR-NH2) (peptide)
peptide: FRWWR-NH2
notes: as for B1
Kd [2]: 1380 nM and 2070 nM and 1450 nM
koff [2]: 0.00383 s⁻¹ and 0.00438 s⁻¹ and 0.00401 s⁻¹
kon [2]: 2770 M⁻¹ s⁻¹ and 2120 M⁻¹ s⁻¹ and 2760 M⁻¹ s⁻¹

RRWQWR-NH2 [WANG-005 (RRWQWR-NH2)]
kon [2]: 658 M⁻¹ s⁻¹ and 436 M⁻¹ s⁻¹ and 494 M⁻¹ s⁻¹

B3: WANG-003 (peptide)
peptide: KRWWR-NH2
notes: in-house synthetic peptide; also called KRWWR-NH2; KRWWR; source: synthetic peptide (solid phase, HPLC purified)
Kd [3]: 3350 ± 1030 nM

B4: WANG-004 (peptide)
peptide: FRWWR-NH2
notes: in-house synthetic peptide; also called FRWWR-NH2; FRWWR; source: synthetic peptide (solid phase, HPLC purified)
Kd [3]: 1630 ± 309 nM
